# The DeepSol protein solubility set
# Test: soluble on expression in E. coli; label from the status in PepcDB or PDB records
row,Sequence,soluble on expression in E. coli
1,MEFKLHNGSGGLCCKSCSRQDKKLNTYDWLADIPGNAEESDMVEVQFKNTRKGYYRNSNKIKLEKGDIVAVEATPGHDIGTVTLTGRLVPLQMKKANFKQDAEIKRIYRKAKAVDMEKYEEAKAKEHTTMIRARQIAASLNLDMKIGDVEYQGDGNKAIFYYIADERVDFRQLIKVLAEAFRVRIEMKQIGARQEAGRIGGIGPCGRELCCATWMTSFVSVSTSAARYQDISLNPQKLAGQCAKLKCCLNYEVDCYVEAQKRLPSREIELETKDGTYYFFKADILSNQISYSTDKNFAANLVTISGKRAFEVIGLNKRGIKPDSLLEAERKPEPKKPVDLLEQESLTRFDRDRRRNAKDGNGKDEGGNGNRKKKKKNNNHPQQATNGETQSSQPTPINAQENNGSQPVQNQQRTRGERPKNNNRNNNQPRKNNESREPRSNENRETRKNEPREQRPPREPRGPRNNEQPKRIEKAQENEKPAQELEHHHHHH,not soluble
2,GPGSMRLLSFSNVPLFLALFPPLPLLSCASVWHTRRHSFSEIFFVGSFIAAPFRCIVSPRVALYRARLRFLAPAACTRALPFAYTGQQGERQIKMITATADAGSAAKAAAAPPARMFDCLDAASKERVTMLLSHYQVLLPVEQASFMQELERYNQEQQTTALERNKAGEVWIRYTNPRLQAVQARDPAYVQRSISHTAASRGSKGDAAPEEATAPCSLEDLVHIRGMFGEPEGVPIRVGKMSLYEKLQQNMRNRRSTACGSLANTTVSSIPTAADAGHGAARVSVPFGPFAEAPAKPAEGKREVGDNASPKTSAQSESGERAVALVCADTFPSHTSSVRPSAPYRNNAYQAVRLAMSSPGYTATTQPTSVAELQTPLDGVKPVLNTTAFPITEEELRDWFDELDVHGRGVLSVEEFQRYMQSLERDLGVPTEYATLELDGAQLAKDGWLSFEAFSYLVLRFVRA,not soluble
3,MLIILLLTVLTVYLVYELYWKRRNFPPGPCPLPVFGNLLSIANPPPGYEAFERWTKKYGDIYTFWIGNTPHIMINTWDKIKETYIRDAETYTNKVRLPALDLFRGGEYGIIDSNGATWREHRRFALSTMRDFGLGKNLMQENILMEVQDVFARLDAKLGSETDIPEVFDHAVANVVNQLLFGYRFVGPKESEYQELKRIIEAPTDLFGKPHMFLAMNIPVIAKLMPEFMYEGPFKDFRDTAFAFFNKQIEAHRQEVDLNDLNSESTDFVETFLKEQKRRESEGDSETFSNVQLSNVCMDLWFAGLNTTTNTITWAISYILHHPEVQDKVHEEMDKVIGSDRLITTADKNDLPYFNAFINEAQRGINIVPLNLQHATTRDTVINGFKIPKGTGVVAQISTVMNNEEVFPDPHTFNPDRFIDEHGKLKRVEELAPFSVGKRSCPGEGLARMELFLFIANFLNRYKIYPSKEGPPSMDKSNGALIAPRLFSATLKRRS,not soluble
4,MGHHHHHHSHIKPGEEVFTSYIDLLYPTEDRNDRLRDSYFFTCECQECTTKDKDKAKVEIRKLSDPPKAEAIRDMVRYARNVIEEFRRAKHYKSPSELLEICELSQEKMSSVFEDSNVYMLHMMYQAMGVCLYMQDWEGALQYGQKIIKPYSKHYPLYSLNVASMWLKLGRLYMGLEHKAAGEKALKKAIAIMEVAHGKDHPYISEIKQEIESH,not soluble
5,MGSDKIHHHHHHMSNANPSRLGMVNGTGADDALFLKVFGGEVLTTFAENNVFLPLTMSRTITSGKSAQFPVLGKNTAYYHVPGAELNGNNILNAERVITVDGLLVSPVFIAKIDEAKTHYDVRSQYTSECGASLSNQADRTISQVLINAARSTATITGGFGGTKLVDAAFGTDGDKLAAGIFGIAQTFDEKDVPETDRYAAVRPAQYYLMVAGTKVLNRDWGGSGSYMDGKVLKVAGVSIVKSNHIPKSVITGSAQAAYDGDFTKTVAVGFHKSAVGTVKLLDLQTEGEYQIQRQGTLIVAKYAMGHGVLRPEAAVELASA,not soluble
6,MGSDKIHHHHHHMKTKPIDLYILSGFLGSGKSTLLKRLIEQEQARGNKIGVLMNELGEVSVDSSIVPKDTPLKEMLNGCICCTIQGELSAQLQSFIEEYELDVIFIEATGAAHPLEVVEACTHPVFAGQVRVRGVLTVVNARQWIEGKMSIKIKKLMEAQVTFADLIVVNKVDQVTDAQVEQLTTSIKDLNPKAINIPTTFSNLEPVHSERLHHAAAPSSRGSESKAHVHEHLHLRTMAVPIQHPVDRMELLSFLKGIQGQIYRVKGFIHLKESPGLFLFNYAYGDPMFERHRTDQAYAPVLVFIGDDLDHQAIEEGLQQLQQ,not soluble
7,AQGQQGQVRLLCNTAALTEYLPELLASYLAENPGVSVDVQELPSLRIVQAITQGMADLGIVSTAAPSEHLQTRPFRDDPLVLVTPQAHPLASALAPSFVDSLAHGYVGLGAGSALGLYLEEQALHEGQRMQVRVRAEGFDGV,not soluble
8,AMNTDLKLPAGKTMTIEDVKQLLERYQMALKKTGEQLGWAYEQAAFPYTVRIHESVLYLQGDGRLYKGMAISVRTAGEETFIDIALPPGATHGDKGKANEFSKWLAKTLGGELHLFSGRTMVFGSA,soluble
9,SLTGKKAEEEYLYQLEQLNQLFTKTEALEESKIFYKNIKFERGLFASHIQDQIEIHKANETIIIPLSSTLYHGPLPLDRVAKLNFVPAIFSSQTLLGKNATTQAFFDITESEKPLQLNFAMNYSLSGNAELKLASGQYHNEQSKTDFDWSNVVLNIDLNQNTPNNYVLSVDTFNSNAPNHAVSTASSIKIKDLVVQGSLQSTKWPFIYSGNINSKIGYFEQNTESAESGEKFSLIQKNSQANLTTQVEGDTVNIINKTNLDELHINGNNLGKVTNNVEFNHIDGNALQELLNILVAIGKADSECLYLKHWCKNYNKQAWPLRIISLKLSLPLFLFLMKKAKWHWI,not soluble
10,AHHHHHHGSKFNEFKTPQIDPIFDLYVAYGYVESLIRGGAKEATLIPHGASYLIQTDVSNEEFRHGLVDALSEMLSLHIALARHSPREGGKLVSDADFSAGANINNVYWDSVPRNLEKVMKDLEKKRSVKGTATIPITLMPSAGKYMLKHFGVQGGNPIKVDLLNYALAWVGFHYYTPYIKYAKGDTTWIHIYQIAPVEEVDMISILSLKDLKMHLPHYYESNLDFLINRRLALLYHLLHSESLGALELFTEKEFVIHSYTLERSGNNQAIRSFEEEEIGKLMDFLWKLKRRDFYHAIKFIDDLLKKATEGALALIDAIMNERLEGFYTALKLGKKAGVVSSREIVAALEDIICER,not soluble
11,MAHHHHHHMATLQVRDFDPRTATHYYHCILAGIPHPVTLQSISSAIVPDSECESVQNLEKIGCQIVPYRLHVFKETLSLKFGVVDFFIHHSTSGESANPAEVHELFLQWFGSSLTRGVMSLNSWISLGQPRELHSATPFVSALMEKCSFFDAKVVSDIEKLRTFILSKVRFDNRGLNAHANNRSRVAASEDSSLQEEQTRTDCGNDPSVEWKSVGTLSASSLDSQELAWLSRQHRQFPSIAPANEREASATWELEPVRTFLQKALTPLVEVVK,not soluble
12,NDIYNNAITPYLNKETGYQEMFQRVNTRIREFMINELKNHHNEDNVFMLAKNSGIEIAKIEEAPNAVLIPAFVLGELEVAFK,not soluble
13,GMSAGKTVVIALGGNAMLQAKEKGDYDTQRKNVEIAASEIYKIHKAGYKVVLTSGNGPQVGAIKLQNQAAAGVSPEMPLHVCGAMSQGFIGYMMSQAMDNVFCANNEPANCVTCVTQTLVDPKDQAFTNPTKPVGRFYTEQEAKDLMAANPGKILREDAGRGWRVVVPSPRPLEIVEYGVIKTLIDNNVLVICTNGGGIPCKRENKVISGVDAVIDKDLATSLLAKTLNSDYLMILTDVLNACINYKKPDERKLEEIKLSEILALEKDGHFAAGSMGPKVRAAIEFTQATGKMSIITSLSTAVDALNGKCGTRIIKD,soluble
14,RSIRLPETIDLGALYLSMKDTEKGIKELNLEKDKKIFNHCFTGNCVIDWLVSNQSVRNRQEGLMIASSLLNEGYLQPAGDMSKSAVDGTAENPFLDNPDAFYYFPDSGFFCEEN,soluble
15,MPLEASELKPTAGPLEASELKPTAGPLEASELKPTAGPLEASELKPTAGPLEASELKPTAGPLEASELKPTAGPLEASELKPTAGMKLKGRGIVKGVAEGELVVSRKPLSFLGGVDPNTGIITDPESDIQGEKITGKILAFPRGKGSTVGSYVIYALAKKGTGPKAIIVEEAEAIVAVGAIIAGIPLVTGIDISKLKSGMKVRVDGERGEVEIIAQGDLLEHHHHHH,not soluble
